In article PMC9405206 (Biomedicines, 2022):

Molecular target: T1, CD47, biotin-conjugated antigen (Homo sapiens, UniProt Q08722, biotin-conjugated)
T1 construct: CD47; Probably the extracellular domain (surmise); also called antigen CD47; source: bought: Sino Biological Inc
Assay: BLI; ForteBio Octet RED96; streptavidin-coated tips loaded with biotin-conjugated PD-L1 or CD47 (100 nM); antibodies or fusion proteins in solution at 25, 50, 75, 100, 125 and 150 nM; dissociation in PBS; 37 °C; global fit, KD = kd/ka
Details: both partners purified

B1: anti-CD47 mAb (B6H12), positive control antibody made in-house (antibody, V domains shown)
VH: EVQLVESGGGLVQPGGSLRLSCAASGFTFSGYGMSWVRQAPGKGLEWVATITSGGTYTYYPDSVKGRFTISRDNAKNSLYLQMNSLRAEDTAVYYCARSLAGNAMDYWGQGTLVTVSS
VL: EIVLTQSPATLSLSPGERATLSCRASQTISDYLHWYQQKPGQAPRLLIKFASQSISGIPARFSGSGSGTDFTLTISSLEPEDFAVYYCQNGHGFPRTFGQGTKVEIK
notes: source: produced in-house from plasmids pUC57/B6H12-Lc and pUC57/B6H12-Hc
Binder B1 has a Kd of 4.08 pM, a koff of 3.99e-07 s⁻¹ and a kon of 97900 M⁻¹ s⁻¹.
